Data from patent US20170145113A1 (Genentech, published 2017).
Blank lines part the entries; values can stand above or below the molecule they belong to.

What was measured:
h15H6.v1 HC-A71R variant = test: phage competition ELISA: phage-displayed Fab preincubated with soluble murine HtrA1, unbound phage captured on coated huHtrA1-PD-His, OD450
h15H6.v1 LC-S49Y variant = test: as above
[1] = target: T1, His-tagged human HtrA1 protease domain (human, UniProt Q92743 161-367); test: SPR (BIACORE), Fab
T1 construct: His-tagged protease domain; also called huHtrA1-PD-His; huHtrA1-PD

[2] = target: T2, LA-pep1, peptide corresponding to residues 190-201 of the human HtrA1 sequence (human); test: SPR, peptide and Fab
T2 construct: Synthetic peptide; numbering of the human HtrA1 precursor protein; also called LA-pepl; HtrA1 Loop A (LA) peptide
T2 peptide: RKLPFSKREVPV

[3] = target: T1, His-tagged human HtrA1 protease domain; test: cell-based or functional assay
[4] = target: endogenous HtrA1 from media of HtrA1-secreting human C32 melanoma cells (human, UniProt Q92743 23-480); test: cell-based or functional assay
LA-pep2 = target: T3, LA-pep2; test: SPR, peptide and Fab
T3 construct: The changed residue is printed as an image; A is put in by the column 'AA change' (R1A); also called R1A
T3 peptide: AKLPFSKREVPV

LA-pep3 = target: T4, LA-pep3; test: SPR, peptide and Fab
T4 construct: The changed residue is printed as an image; A is put in by the column 'AA change' (L3A); also called L3A
T4 peptide: RKAPFSKREVPV

LA-pep4 = target: T5, LA-pep4; test: SPR, peptide and Fab
T5 construct: The changed residue is printed as an image; A is put in by the column 'AA change' (P4A); also called P4A
T5 peptide: RKLAFSKREVPV

LA-pep5 = target: T6, LA-pep5; test: SPR, peptide and Fab
T6 construct: The changed residue is printed as an image; A is put in by the column 'AA change' (F5A); also called F5A
T6 peptide: RKLPASKREVPV

LA-pep6 = target: T7, LA-pep6; test: SPR, peptide and Fab
T7 construct: The changed residue is printed as an image; A is put in by the column 'AA change' (R8A); also called R8A
T7 peptide: RKLPFSKAEVPV

[5] = target: T1, His-tagged human HtrA1 protease domain; test: cell-based or functional assay; remark: listed apart in the source
[6] = target: T1, His-tagged human HtrA1 protease domain; test: BIACORE SPR analysis, Fab format
Protocol: To determine the binding affinity of selected Fab variants for HtrA1, SPR measurement with a BIACORE™ T200 instrument was performed. Briefly, a series S sensor chip CM5 was activated with 1-EDC and NHS reagents according to the supplier's instructions, and anti-His antibody was coupled to achieve 200-300 response units (RU), then following by blocking un-reacted groups with 1 M ethanolamine. For kinetics measurements, approximately 5 nM of huHtrA1-PD-His was first injected at 10 μl/min flow rate to capture approximately 100 RU at 2 different flow cells (FC), except for FC1 (which served as a reference). Next, 5-fold serial dilutions of Fab in HBS-P buffer (0.01M HEPES pH 7.4, 0.15M NaCl, 0.005% surfactant P20) from low (0.8 nM) to high (50 nM) were injected (flow rate: 30 μl/min). The binding responses on HtrA1 were corrected by subtracting of RU from a blank flow cell. The sensorgram was recorded and subject to reference and buffer subtraction before evaluating by BIACORE® T200 Evaluation Software (version 2.0). Association rates (kₒₙ) and dissociation rates (koff) were calculated using a simple one-to-one Langmuir binding model. The equilibrium dissociation constant (KD) was calculated as the ratio of koff/kₒₙ.

[7] = target: T1, His-tagged human HtrA1 protease domain; test: BIACORE T200 SPR; Fab analyte over huHtrA1-PD-His captured by anti-His antibody
[8] = target: T8, murine HtrA3 protease domain (murine, UniProt Q9D236 135-350, limits assumed); test: ELISA, hybridoma clone
T8 construct: domain: PD (protease domain); also called muHtrA3-PD; murine HtrA3-PD
T8 sequence (looked up): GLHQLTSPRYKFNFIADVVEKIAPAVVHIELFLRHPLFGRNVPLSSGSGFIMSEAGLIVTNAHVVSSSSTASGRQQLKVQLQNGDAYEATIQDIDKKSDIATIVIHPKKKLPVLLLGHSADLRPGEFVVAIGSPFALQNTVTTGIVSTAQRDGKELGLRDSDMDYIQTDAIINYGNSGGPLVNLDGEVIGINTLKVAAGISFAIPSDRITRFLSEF

[9] = target: T9, murine HtrA4 protease domain (murine, UniProt A2RT60 160-371, limits assumed); test: ELISA, hybridoma clone
T9 construct: domain: PD (protease domain); also called muHtrA4-PD; murine HtrA4-PD
T9 sequence (looked up): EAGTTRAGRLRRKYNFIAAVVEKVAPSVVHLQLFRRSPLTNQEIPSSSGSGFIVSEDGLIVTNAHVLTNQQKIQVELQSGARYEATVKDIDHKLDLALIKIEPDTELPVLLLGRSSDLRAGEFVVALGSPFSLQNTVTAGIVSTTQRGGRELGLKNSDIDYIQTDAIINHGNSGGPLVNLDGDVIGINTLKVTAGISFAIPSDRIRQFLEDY

[10] = target: T10, His-tagged recombinant murine HtrA1 protease domain (murine, UniProt Q9R118 156-367); test: ELISA, antigen coated on plate, hybridoma clone
T10 construct: His-tagged protease domain; also called muHtrA1-PD-His; muHtrA1-PD
Protocol: (§1) ELISA was performed according to a standard protocol. Briefly, 96-well microliter ELISA plates (Greiner, Germany) were coated with 100 μl/well muHtrA1-PD-His or huHtrA1-PD-His (SEQ ID NO: 154) at 2 μg/ml in 0.05 M carbonate buffer (pH 9.6) at 4° C. overnight. After washing three times with wash buffer (0.05% TWEEN®20 in PBS, Sigma), plates were blocked with 100 μl ELISA assay diluents with BSA. 100 μl of cultured supernatants or diluted purified monoclonal antibodies (mAbs) were added and incubated for 1 h at room temperature. The plates were washed three times and incubated with HRP-conjugated goat anti-mouse IgG Fc for 1 h. After washing three times, bound enzyme was detected by addition of 100 μl/well of the TMB substrate (BioFX Laboratories) for 5 min. The reactions were stopped by adding 100 μl/well of stop reagent (BioFX Laboratories), followed by detection of color at absorbance 650 nm (A_{650 nm}).

[11] = target: T1, His-tagged human HtrA1 protease domain; test: ELISA, antigen coated on plate, hybridoma clone
Protocol: as §1

[12] = target: purified full-length human HtrA1 (human, UniProt Q92743 23-480); test: cell-based or functional assay
[13] = target: purified full-length murine HtrA1 (murine, UniProt Q9R118 23-480); test: cell-based or functional assay

T1 sequence (Q92743 other isoform, or with tags, fused parts or gaps limits assumed): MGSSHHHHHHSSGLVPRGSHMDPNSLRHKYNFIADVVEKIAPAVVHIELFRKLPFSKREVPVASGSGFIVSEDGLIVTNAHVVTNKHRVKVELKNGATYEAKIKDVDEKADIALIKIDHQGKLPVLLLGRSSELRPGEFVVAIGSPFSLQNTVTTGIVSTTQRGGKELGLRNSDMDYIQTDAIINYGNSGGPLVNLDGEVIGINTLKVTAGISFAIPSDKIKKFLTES
Sequence of purified full-length human HtrA1 (Q92743 23-480): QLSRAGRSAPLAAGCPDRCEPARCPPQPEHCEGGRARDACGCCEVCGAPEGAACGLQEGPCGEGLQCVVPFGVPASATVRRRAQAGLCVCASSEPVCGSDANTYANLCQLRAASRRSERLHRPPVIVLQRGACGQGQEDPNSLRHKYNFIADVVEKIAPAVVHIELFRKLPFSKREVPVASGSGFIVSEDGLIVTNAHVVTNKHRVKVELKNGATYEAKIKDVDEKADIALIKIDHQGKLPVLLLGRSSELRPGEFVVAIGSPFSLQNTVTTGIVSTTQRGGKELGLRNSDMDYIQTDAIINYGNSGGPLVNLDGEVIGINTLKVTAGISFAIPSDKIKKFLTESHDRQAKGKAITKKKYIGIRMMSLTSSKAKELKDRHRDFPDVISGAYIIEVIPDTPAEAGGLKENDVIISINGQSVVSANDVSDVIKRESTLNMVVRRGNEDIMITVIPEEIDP
Sequence of endogenous HtrA1 from media of HtrA1-secreting human C32 melanoma cells (Q92743 23-480 limits assumed): as the sequence (Q92743 23-480) above

- fold improvement in affinity against YW505.94a.28 Fab [1]: ~30 fold
- Kd [2]: 0.4 nM
- IC50, FRET-based H2-Opt blocking assay [3]: ~0.386 nM
- IC50, mass spectrometry-based activity assay (cleavage of intact α-casein) [3]: ~45 nM
- IC50, endogenous HtrA1 activity assay (H2-Opt) [4]: ~1.12 nM
- Kd (LA-pep2): 321 nM
- affinity loss (KD mutant/KD wild-type) (LA-pep2): 810 fold
- affinity loss (KD mutant/KD wild-type) (LA-pep3): > 2500 fold
- affinity loss (KD mutant/KD wild-type) (LA-pep4): > 2500 fold
- Kd (LA-pep5): 4.53 nM
- affinity loss (KD mutant/KD wild-type) (LA-pep5): 11 fold
- affinity loss (KD mutant/KD wild-type) (LA-pep6): > 2500 fold
- IC50 FRET (H2-Opt substrate cleavage) [5]: 0.3 nM
- IC90 FRET (H2-Opt substrate cleavage) [5]: 1.19 nM
- Max inhibition (FRET H2-Opt assay) [5]: 100
- Kd [6]: 0.106 nM
- koff [6]: 3.29e-05 s⁻¹
- kon [6]: 309000 M⁻¹ s⁻¹
- Kd [7]: 0.106 nM
- koff [7]: 3.29e-05 s⁻¹
- kon [7]: 309000 M⁻¹ s⁻¹
B1: h15H6.v4 Fab (Fab, V domains shown)
VH: EVQLVQSGAEVKKPGASVKVSCKASGYKFTDSEMHWVRQAPGQGLEWIGGVDPETEGAAYNQKFKGRATITRDTSTSTAYLELSSLRSEDTAVYYCTRGYDYDYALDYWGQGTLVTVSS
VL: DIQMTQSPSSLSASVGDRVTITCRASSSVEFIHWYQQKPGKAPKPLISATSNLASGVPSRFSGSGSGTDFTLTISSLQPEDFATYYCQQWSSAPWTFGQGTKVEIK
notes: Tested as Fab; also called APEG.LC3.HC3; Fab15H6.v4
- binding result (LA-pep3): no binding (tested: no binding detected up to 1 µM)
- binding result (LA-pep4): no binding (tested: no binding detected up to 1 µM)
- binding result (LA-pep6): no binding (tested: no binding detected up to 1 µM)

- binding result [8]: no binding
- binding result [9]: no binding
- binding result [10]: binds
- binding result [11]: binds
B2: anti-HtrA1 hybridoma antibody clone 20E2 (antibody, V domains shown)
VH: EVKLVESGGGLVQPGGSLKLSCAASGFTFSSYIMSWVRQTPEKRLEWVAYISNGGGTTYYPDTIKGRFTISRDNAKNTLYLQMNTLKSEDTAIYFCARQNFRSDGSSMDYWGQGTSVTVSS
VL: NIVLTQSPASLAVSLGQRATISCRASESVDTSGRSFMHWYQQKPGQPPRLLIYLASKLESGVPARFSGSGSRTDFTLTIDPVEADDAATYYCQQNNEDPYTFGGGTNLEIK

- binding result [8]: no binding
- binding result [9]: no binding
- binding result [10]: binds
- binding result [11]: binds
B4: anti-HtrA1 hybridoma antibody clone 3A5 (antibody, V domains shown)
VH: DVHLVESGGGLVRPGGSRKLSCEASGFTFSSFGMHWVRQAPEKGLEWVAFITSDSSTIYYADTVKGRFTISRDNPKNTLFLQMTSLRSEDTAMYYCTRSGDDYLDYWGQGTTLTVSS
VL: DIVLTQSPASLAVSLGQRATISCRASQSVSTSSSSYMHWYQQKPGQPPKVFIKYASNLESGVPARFSGSGSGTDFTLSIHPVEEEDTATYYCQHSWEIPFTFGGGTKLEIK

The next lines start with the molecule.

Molecule: His-tagged recombinant murine HtrA1 protease domain (from UniProt Q9R118 156-367) (enzyme)
- IC50 (read off the curve) (h15H6.v1 HC-A71R variant): 0.1 nM
- IC50 (read off the curve) (h15H6.v1 LC-S49Y variant): 0.6 nM

B3: anti-HtrA1 hybridoma antibody clone 15H6 (antibody, V domains shown)
VH: QVQLQQSGAELVRPGASVTLSCKASGYTFTDSEMHWVKQTPVHGLEWIGGVDPETDGAAYNQKFKGKATLTADKSSSTAYMELRSLTSEDSAVYYCTRGYDYDYALDYWGQGTSVTVSS
VL: QIVLSQSPAILSASPGEKVTMTCRASSSVNFIHWYQQKPGSSPKPWISATSNLASGVPPRFSGSGSGTSYSLTISRVEAEDAATYYCQQWSSNPWTFGGGTKLEIK
notes: Murine mIgG2a, from hybridoma or recombinant from 293 cells; also called m15H6
- IC50, FRET blocking assay, recombinant antibody from 293 cells [12]: ~0.7 nM
- IC50, FRET-based blocking assay (H2-Opt cleavage) [12]: 0.7 nM
- fold improvement of IC50 against YW505.94 [12]: ~2 fold
- IC50, FRET-based blocking assay (H2-Opt cleavage) [13]: 1.1 nM
- fold improvement of IC50 against YW505.94 [13]: ~5 fold
- binding result [8]: no binding
- binding result [9]: no binding
